Assay results: paper PMC2935968 (2010)

Target: T1, CHORDII domain of cress (Arabidopsis thaliana) Rar1 (Arabidopsis thaliana, UniProt Q9SE33 149-221)
T1 chain: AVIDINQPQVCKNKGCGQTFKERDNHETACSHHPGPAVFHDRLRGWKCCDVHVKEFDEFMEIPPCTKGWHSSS
Test: ITC

B1: N-terminal domain of barley (Hordeum vulgare) Hsp90 (domain or fragment)
chain: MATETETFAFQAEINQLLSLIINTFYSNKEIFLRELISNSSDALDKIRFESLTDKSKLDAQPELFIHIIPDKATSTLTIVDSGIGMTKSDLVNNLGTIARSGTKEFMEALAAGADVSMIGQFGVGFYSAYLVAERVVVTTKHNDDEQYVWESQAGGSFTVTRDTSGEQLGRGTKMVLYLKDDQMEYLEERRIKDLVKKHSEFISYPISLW
Work on B1 yielded a Kd of 22.3 µM.
